Results as given in publication PMC4960319, “The anti-sigma factor RsrA responds to oxidative stress by reburying its hydrophobic core” (Nature Communications, 2016).
Several values for one entry are separate records, joined by “and”; a condition that tells them apart may be missing. Identical values can stand only once.

Tests used:
Conditions in all cases: both partners purified
σR (residues 5-227) [1] = target: T1, σR (residues 5-227) (Streptomyces coelicolor, UniProt Q7AKG9 5-227); test: stopped-flow tryptophan fluorescence; 25 °C, with zinc; kon: pseudo-first-order, σR 125 nM, RsrA 1.25-2.5 μM; koff: 2.5 μM complex displaced with 25 μM σR Trp88Ile Trp119Ile; Kd = koff/kon; 50 mM Tris pH 7.5, 100 mM NaCl, 2 mM DTT
T1 construct: ECF sigma factor σR (SigR) of Streptomyces coelicolor; residues 5-227 subcloned into pET21a with a C-terminal stop codon for tagless expression; also called sigma factor σR; SigR; source: E. coli BL21(DE3), purified without tags (ammonium sulfate precipitation, Q-Sepharose, Hi-Load S75)

σR (residues 5-227) [2] = target: T1, σR (residues 5-227); test: stopped-flow tryptophan fluorescence; 25 °C, without zinc (EDTA-treated RsrA); kon: pseudo-first-order, σR 125 nM, RsrA 1.25-2.5 μM; koff: 2.5 μM complex displaced with 25 μM σR Trp88Ile Trp119Ile; Kd = koff/kon; 50 mM Tris pH 7.5, 100 mM NaCl, 2 mM DTT
σR (residues 5-227) [3] = target: T1, σR (residues 5-227); test: stopped-flow tryptophan fluorescence; 35 °C, with zinc; kon: pseudo-first-order, σR 125 nM, RsrA 1.25-2.5 μM; koff: 2.5 μM complex displaced with 25 μM σR Trp88Ile Trp119Ile; Kd = koff/kon; 50 mM Tris pH 7.5, 100 mM NaCl, 2 mM DTT
σR (residues 5-227) [4] = target: T1, σR (residues 5-227); test: stopped-flow tryptophan fluorescence; 35 °C, without zinc (EDTA-treated RsrA); kon: pseudo-first-order, σR 125 nM, RsrA 1.25-2.5 μM; koff: 2.5 μM complex displaced with 25 μM σR Trp88Ile Trp119Ile; Kd = koff/kon; 50 mM Tris pH 7.5, 100 mM NaCl, 2 mM DTT
σR Trp88Ile Trp119Ile = target: T2, σR Trp88Ile Trp119Ile (Streptomyces coelicolor, UniProt Q7AKG9 5-227, Trp88Ile | Trp119Ile); test: ITC; competition ITC as for the wild-type complex (Figure 3a): RsrAred.Zn2+ (100 μM) titrated into σR (10 μM, cell) in the presence of 50 μM weak competitor RsrA* Cys11Ser Cys44Ser; 35 °C, 50 mM Tris pH 7.5, 100 mM NaCl, 2 mM DTT
T2 construct: ECF sigma factor σR (SigR) of Streptomyces coelicolor; mutant of the tagless construct of residues 5-227 (all σR mutants were similarly purified); The limits are those of the wild-type construct; source: E. coli BL21(DE3), purified as wild-type σR

[5] = target: T3, σ^R (sigma factor SigR) from Streptomyces coelicolor, residues 5-227, tagless (Streptomyces coelicolor, UniProt Q7AKG9 5-227); test: ITC; direct titration in the absence of zinc: RsrA^red (100 μM), σ^R (10 μM); 35 °C, 50 mM Tris pH 7.5, 100 mM NaCl, 2 mM DTT; single site model
T3 construct: ECF sigma factor σ^R (SigR) of Streptomyces coelicolor, residues 5-227 subcloned into pET21a (NdeI, BamHI) with a C-terminal stop codon; also called wild-type σ^R; source: E. coli BL21(DE3), pET21a, purified without tags (ammonium sulfate, Q-Sepharose, Hi-Load S75)

[6] = target: T3, σ^R (sigma factor SigR) from …; test: ITC; competition ITC: RsrA^red.Zn^2+ (100 μM) titrated into σ^R (10 μM) with 50 μM weak-binding RsrA mutant in the cell; 35 °C, 50 mM Tris pH 7.5, 100 mM NaCl, 2 mM DTT; competitive binding model
[7] = target: T3, σ^R (sigma factor SigR) from …; test: stopped-flow tryptophan fluorescence; dissociation by competition, without zinc (apo-RsrA): 2.5 μM complex mixed with 25 μM σ^R Trp88Ile Trp119Ile (10-fold excess); 25 °C, 50 mM Tris pH 7.5, 100 mM NaCl
[8] = target: T3, σ^R (sigma factor SigR) from …; test: stopped-flow tryptophan fluorescence; dissociation by competition, with zinc: 2.5 μM complex mixed with 25 μM σ^R Trp88Ile Trp119Ile (10-fold excess); 25 or 35 °C, 50 mM Tris pH 7.5, 100 mM NaCl
σR (residues 5-227) [9] = target: T1, σR (residues 5-227); test: ITC; with zinc (+); 35 °C, 50 mM Tris pH 7.5, 100 mM NaCl, 2 mM DTT; the table does not tell whether this sub-nanomolar value came from a direct or a competition titration
σR (residues 5-227) [10] = target: T1, σR (residues 5-227); test: ITC; without zinc (-); direct titration; 35 °C, 50 mM Tris pH 7.5, 100 mM NaCl, 2 mM DTT; single binding site model
[11] = target: T3, σ^R (sigma factor SigR) from …; test: ITC; RsrA mutants (values in Supplementary Table 1); 35 °C, 50 mM Tris pH 7.5, 100 mM NaCl, 2 mM DTT; direct titration for weaker binding mutants (10 μM RsrA in the cell, 100 μM σ^R in the syringe); RsrA preincubated with ZnCl2 and buffer exchanged where zinc was included
σR (residues 5-227) [12] = target: T1, σR (residues 5-227); test: ITC; with zinc (+), RsrA preincubated with 1 mM ZnCl2 and buffer exchanged; direct titration for weaker binding mutants (methods: 10 μM RsrA in the cell, 100 μM σR in the syringe); 35 °C, 50 mM Tris pH 7.5, 100 mM NaCl, 2 mM DTT; single binding site model
σ^R Trp88Ile Trp119Ile = target: T4, σ^R Trp88Ile Trp119Ile (Streptomyces coelicolor, UniProt Q7AKG9 5-227, Trp88Ile | Trp119Ile); test: stopped-flow tryptophan fluorescence; dissociation by competition, with zinc: 2.5 μM complex mixed with 25 μM σ^R Trp88Ile Trp119Ile (10-fold excess); 25 or 35 °C, 50 mM Tris pH 7.5, 100 mM NaCl
T4 construct: ECF sigma factor σ^R (SigR) of Streptomyces coelicolor; both tryptophans replaced; The limits 5-227 are those stated for the tagless wild-type construct; source: E. coli BL21(DE3), purified as wild-type σ^R ("All σ^R mutants were similarly purified")

B1: RsrA wild type (natural protein, Streptomyces coelicolor, UniProt Q7AKG8 1-105, looked up)
chain: MSCGEPHETDCSEILDHLYEFLDKEMPDSDCVKFEHHFEECSPCLEKYGLEQAVKKLVKRCCGQDDVPGDLRAKVMGRLDLIRSGQSVPEHDVAAAPSSSAPQES
notes: Reduced protein; used with one equivalent of zinc or after EDTA treatment without zinc (told by the assay); also called RsrAred.Zn2+ (with one zinc); RsrAred (without zinc); source: E. coli BL21(DE3) pLysS, purified by a His-tag that was removed by thrombin; not shown: His tag, N-terminal, cleaved
σR (residues 5-227) [1]
  Kd: 0.13 nM
  koff: 0.00071 s⁻¹
  kon: 5.4e+06 M⁻¹ s⁻¹
σR (residues 5-227) [2]
  Kd: 24.9 nM
  koff: 0.286 s⁻¹
  kon: 1.15e+07 M⁻¹ s⁻¹
σR (residues 5-227) [3]
  Kd: 0.27 nM
  koff: 0.0024 s⁻¹
  kon: 8.9e+06 M⁻¹ s⁻¹
σR (residues 5-227) [4]
  Kd: 62.4 nM
  koff: 1.08 s⁻¹
  kon: 1.73e+07 M⁻¹ s⁻¹
σR Trp88Ile Trp119Ile
  Kd: 0.173 nM
  stoichiometry N: 1.17

B2: RsrA (wild type), anti-sigma factor from Streptomyces coelicolor (natural protein, UniProt Q7AKG8 1-105, looked up)
chain: MSCGEPHETDCSEILDHLYEFLDKEMPDSDCVKFEHHFEECSPCLEKYGLEQAVKKLVKRCCGQDDVPGDLRAKVMGRLDLIRSGQSVPEHDVAAAPSSSAPQES
notes: Used reduced with one zinc ion at the ZAS motif (RsrA^red.Zn^2+) or reduced without zinc (EDTA-treated); the assay tells which; also called RsrA^red.Zn^2+; RsrA^red; source: E. coli BL21(DE3) pLysS, purified using a His-tag that was removed by thrombin cleavage; not shown: His-tag, N-terminal, cleaved
[5]
  Kd: 79.3 ± 4.2 nM
  dH: -16.26 ± 0.13 kcal/mol
  stoichiometry N: 0.97 ± 0.004
[6]
  Kd: 0.78 nM and ~0.7 nM
  dH: -23.1 kcal/mol
  stoichiometry N: 1.01
[7]
  fold increase of koff without zinc against with zinc: 400 fold
  koff: ~0.3 s⁻¹
[8]
  fold, kinetically derived Kd at 25 °C lower than at 35 °C: ~2 fold

B3: RsrA* (natural protein, Streptomyces coelicolor, UniProt Q7AKG8 1-105, looked up)
chain: MSAGEPHETDCSEILDHLYEFLDKEMPDSDAVKFEHHFEECSPCLEKYGLEQAVKKLVKRAAGQDDVPGDLRAKVMGRLDLIRSGQSVPEHDVAAAPSSSAPQES
notes: also called RsrA*red.Zn2+; source: E. coli BL21(DE3) pLysS, purified by a His-tag that was removed by thrombin; not shown: His tag, N-terminal, cleaved
σR (residues 5-227) [9]
  Kd: 0.23 nM
σR (residues 5-227) [10]
  Kd: 183 nM

B4: RsrA* Cys44His (natural protein, Streptomyces coelicolor, UniProt Q7AKG8 1-105, looked up)
chain: MSAGEPHETDCSEILDHLYEFLDKEMPDSDAVKFEHHFEECSPHLEKYGLEQAVKKLVKRAAGQDDVPGDLRAKVMGRLDLIRSGQSVPEHDVAAAPSSSAPQES
notes: source: E. coli BL21(DE3) pLysS, purified using a His-tag that was removed by thrombin cleavage; not shown: His-tag, N-terminal, cleaved
[11]
  binding result: binds

B5: RsrA* C11S C41S (natural protein, Streptomyces coelicolor, UniProt Q7AKG8 1-105, looked up)
chain: MSAGEPHETDSSEILDHLYEFLDKEMPDSDAVKFEHHFEESSPCLEKYGLEQAVKKLVKRAAGQDDVPGDLRAKVMGRLDLIRSGQSVPEHDVAAAPSSSAPQES
notes: source: E. coli BL21(DE3) pLysS, purified by a His-tag that was removed by thrombin; not shown: His tag, N-terminal, cleaved
σR (residues 5-227) [12]
  Kd: 240 nM

B6: RsrA* Cys41His (natural protein, Streptomyces coelicolor, UniProt Q7AKG8 1-105, looked up)
chain: MSAGEPHETDCSEILDHLYEFLDKEMPDSDAVKFEHHFEEHSPCLEKYGLEQAVKKLVKRAAGQDDVPGDLRAKVMGRLDLIRSGQSVPEHDVAAAPSSSAPQES
notes: as for B4
[11]
  binding result: binds

B7: RsrA* (RsrA with Cys3, Cys31, Cys61 and Cys62 mutated to alanine) (natural protein, Streptomyces coelicolor, UniProt Q7AKG8 1-105, looked up)
chain: MSAGEPHETDCSEILDHLYEFLDKEMPDSDAVKFEHHFEECSPCLEKYGLEQAVKKLVKRAAGQDDVPGDLRAKVMGRLDLIRSGQSVPEHDVAAAPSSSAPQES
notes: the four non-essential cysteines mutated to alanine; also called RsrA*^red.Zn^2+; source: E. coli BL21(DE3) pLysS, purified using a His-tag that was removed by thrombin cleavage; not shown: His-tag, N-terminal, cleaved
[8]
  koff: 0.0027 s⁻¹
σ^R Trp88Ile Trp119Ile
  binding result: binds

B8: RsrA* Cys11Ser Cys44Ser (natural protein, Streptomyces coelicolor, UniProt Q7AKG8 1-105, looked up)
chain: MSAGEPHETDSSEILDHLYEFLDKEMPDSDAVKFEHHFEECSPSLEKYGLEQAVKKLVKRAAGQDDVPGDLRAKVMGRLDLIRSGQSVPEHDVAAAPSSSAPQES
notes: as for B4
[11]
  Kd: 185 nM
